Source: publication PMC2888265
Like-named read-outs stand apart in the source and are kept apart here.

Tests used:
Experiment in all cases: crystal structure
[1] = biological target: Teg12 (uncultured bacterium (DNA extracted directly from desert soil))
[2] = biological target: Teg12 (uncultured bacterium (DNA extracted directly from desert soil)); remark: listed apart in the source
[3] = biological target: Teg12 (uncultured bacterium (DNA extracted directly from desert soil)); remark: listed apart in the source

stoichiometry N [1]: 2
stoichiometry N [2]: 2
stoichiometry N [3]: 2
Substance: Teg12 (enzyme)
